Measurements published in patent publication US10174097B2, “Specific A-beta species-binding peptides for the therapy and/or diagnosis of Alzheimer's dementia” (Forschungszentrum Juelich GmbH, priority 2015, dated 2019).
[ ]: non-standard residue; d: D form. d(hArg) = N=C(N)NCCCC[C@@H](N)C(=O)O; dPhg = N[C@@H](C(=O)O)c1ccccc1

How the values were obtained:
Abeta fibrils [1] = target: T1, Abeta fibrils (Homo sapiens, UniProt P05067); assay: Peptide microarray, binding of FITC Abeta fibrils to immobilized peptides; settings: 1 hour at room temperature, control subtracted, averaged
T1 construct: Pre-incubated Abeta was co-incubated with the peptides
Description: (§1) The procedure for identifying peptides that bind specifically to amyloid beta monomer or specifically to amyloid beta oligomers and for determining the binding specificity of peptides within the meaning of the present invention can thus be as follows. Peptide microarrays comprising various peptides immobilized on a surface, such as derivatives of D3, are each incubated with different species of Abeta (such as monomers, oligomers and fibrils) labeled with a fluorescent dye. A peptide microarray is incubated with only the fluorescent dye to serve as the control. So as to ensure the reproducibility of the results, the incubation of the peptide microarrays can be carried out at least three times for each species. The binding of the fluorescence-labeled Abeta to the immobilized peptides is detected by way of the fluorescent dye. The more Abeta binds to the peptide, the higher the fluorescence signal is. The measured fluorescence signals of the reproductions are standardized, and the […]. This avoids binding of the fluorescence-labeled Abeta via the dye. The binding signals of an Abeta species to a peptide are then averaged. So as to determine the binding specificity, the quotient of the species to which the peptide is to specifically bind and another species is found.
(§2) Pretreatment of the peptide microarray slides: • briefly dip 3× in ethanol (96%) and then wash with H2O (30 minutes) • briefly dry by way of centrifuging
Preparation of fibrils: • incubate Abeta over 3 days, centrifuge, discard supernatant and resuspend in buffer (repeat 3 times)
(§3) Carrying out the peptide microarray: • incubate with FITC Abeta monomers, oligomers, fibrils and FITC for 1 hour at room temperature • wash: TBS-T briefly 3× (only TBS-T buffer is replaced), 3×10 minutes in a flacon, 3×H2O, 3×10 minutes • dry by way of centrifugation • The binding of the fluorescence-labeled Abeta to the immobilized peptides is detected by way of the fluorescent dye using the microarray reader FLA800 from Fuji Film. The more Abeta binds to the peptide, the higher is the fluorescence signal. • carrier set mode: slides • resolution: 10 μm • scan mode: high sensitivity (slow): scan pixel at 200 mm/s • laser: 473 nm • filter: 530 DF 20 • photomultiplier tube (PMT) HV (%): 100 • images were stored as .tif files
(§4) The software, AIDA Metrix, from Raytest was used to evaluate the fluorescence signals:
(§5) To ensure the reproducibility of the results, the incubation of the peptide microarrays is carried out at least three times for each species.
(§6) The measured fluorescence signals of the reproductions are standardized using a median-based standardization, and the control was subtracted from the signal. This avoided the binding of the fluorescence-labeled Abeta via the dye.
(§7) The binding signals of an Abeta species to a peptide were averaged.

Abeta monomers = target: T2, Abeta monomers (Homo sapiens, UniProt P05067); assay: Peptide microarray, binding of FITC Abeta monomers to immobilized peptides; settings: for Binding signal to Abeta monomers: peptide microarray, FITC Abeta, 1 hour at room temperature, control subtracted, averaged; for Binding specificity monomer to fibrils: quotient binding signal to monomers / binding signal to fibrils; for Binding specificity monomer to oligomer: quotient binding signal to monomers / binding signal to oligomers
T2 construct: incubate with FITC Abeta monomers, oligomers, fibrils and FITC for 1 hour at room temperature
Description: as §1, §2
(§8) Preparation of monomers and oligomers: • size exclusion chromatography according to Johansson et al. 2006 (Johansson, A.-S. et al. Physiochemical characterization of the Alzheimer's disease-related peptides Aβ1-42Arctic and Aβ1-42 wt. FEBS Journal 273, 2618-2630 (2006)). • oligomers were fractionated at 8-9 ml, monomers at 16-17 ml.
as §3, §4, §5, §6, §7
So as to determine the binding specificity, the quotient of the species to which the peptide is to specifically bind and another species is created.
Example: binding specificity of peptide X to Abeta monomers=binding signal of peptides X to monomers/binding signal of peptides X to oligomers.

Abeta oligomers [2] = target: T3, Abeta oligomers (Homo sapiens, UniProt P05067); assay: Peptide microarray, binding of FITC Abeta oligomers to immobilized peptides; settings: 1 hour at room temperature, control subtracted, averaged
Description: as §1, §2, §8, §3, §4, §5, §6, §7

Abeta oligomers [3] = target: T3, Abeta oligomers; assay: QIAD method, elimination of Abeta oligomers (density gradient centrifugation, RP-HPLC); assay type: biochemical; settings: ratio of Abeta to peptide of 8:1, fractions 4-6, FIG. 2
Description: Using the QIAD method for the quantitative characterization of amyloid peptides and/or proteins in a sample, it was possible to quantify the properties of the substances. Pre-incubated Abeta was co-incubated with the peptides. The different Abeta species were separated by way of density gradient centrifugation and quantified in the individual fractions by way of RP-HPLC Abeta. The elimination of the Abeta oligomers in fractions 4-6 was analyzed.

Abeta fibrils [4] = target: T1, Abeta fibrils; assay: ThT assay, formation of ThT positive Abeta fibrils; assay type: biochemical; settings: 48 hours, co-incubation with Abeta, FIG. 3

T1 sequence (P05067 672-713 limits assumed): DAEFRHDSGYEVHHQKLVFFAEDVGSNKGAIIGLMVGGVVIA
T2 sequence (P05067 672-713 limits assumed): as above
T3 sequence (P05067 672-713 limits assumed): as above

Substance | Binding signal to Abeta fibrils (Abeta fibrils [1]) | Binding signal to Abeta monomers (Abeta monomers) | Binding specificity monomer to fibrils (Abeta monomers) | Binding specificity monomer to oligomer (Abeta monomers) | Binding signal to Abeta oligomers (Abeta oligomers [2]) | Elimination of Abeta oligomers (Abeta oligomers [3]) | ThT fluorescence during the entire measuring time period (Abeta fibrils [4])
rkr07rlvtkrnr (H-[dR][dK][dR][d(hArg)][dR][dL][dV][dT][dK][dR][dN][dR]-NH2; SMILES CC(C)C[C@@H](NC(=O)[C@@H](CCCNC(=N)N)NC(=O)[C@@H](CCCCNC(=N)N)NC(=O)[C@@H](CCCNC(=N)N)NC(=O)[C@@H](CCCCN)NC(=O)[C@H](N)CCCNC(=N)N)C(=O)N[C@@H](C(=O)N[C@@H](C(=O)N[C@H](CCCCN)C(=O)N[C@H](CCCNC(=N)N)C(=O)N[C@H](CC(N)=O)C(=O)N[C@H](CCCNC(=N)N)C(N)=O)[C@H](C)O)C(C)C) [ANK16, D3 derivative; 07: D-Homoarginine] | 1.5 rfu | 11.9 rfu | 8.1 | 8.6 | 1.4 rfu | – | –
rkrirl06yhikr (H-[dR][dK][dR][dI][dR][dL][dPhg][dY][dH][dI][dK][dR]-NH2; SMILES CC[C@@H](C)[C@@H](NC(=O)[C@@H](Cc1c[nH]cn1)NC(=O)[C@@H](Cc1ccc(O)cc1)NC(=O)[C@H](NC(=O)[C@@H](CC(C)C)NC(=O)[C@@H](CCCNC(=N)N)NC(=O)[C@H](NC(=O)[C@@H](CCCNC(=N)N)NC(=O)[C@@H](CCCCN)NC(=O)[C@H](N)CCCNC(=N)N)[C@H](C)CC)c1ccccc1)C(=O)N[C@H](CCCCN)C(=O)N[C@H](CCCNC(=N)N)C(N)=O) [ANK17, D3 derivative; 06: Phenylglycine (D)] | 1.9 rfu | 4.7 rfu | 2.5 | 4.8 | 1.0 rfu | – | –
rkrirl06yhinr (H-[dR][dK][dR][dI][dR][dL][dPhg][dY][dH][dI][dN][dR]-NH2; SMILES CC[C@@H](C)[C@@H](NC(=O)[C@@H](Cc1c[nH]cn1)NC(=O)[C@@H](Cc1ccc(O)cc1)NC(=O)[C@H](NC(=O)[C@@H](CC(C)C)NC(=O)[C@@H](CCCNC(=N)N)NC(=O)[C@H](NC(=O)[C@@H](CCCNC(=N)N)NC(=O)[C@@H](CCCCN)NC(=O)[C@H](N)CCCNC(=N)N)[C@H](C)CC)c1ccccc1)C(=O)N[C@H](CC(N)=O)C(=O)N[C@H](CCCNC(=N)N)C(N)=O) [ANK2, D3 derivative; 06: Phenylglycine (D)] | 0.8 rfu | 5.6 rfu | 7.1 | 3.4 | 1.6 rfu | 54±7% | remains at the level of the first measured value
rkrirl06yhwnr (H-[dR][dK][dR][dI][dR][dL][dPhg][dY][dH][dW][dN][dR]-NH2; SMILES CC[C@@H](C)[C@@H](NC(=O)[C@@H](CCCNC(=N)N)NC(=O)[C@@H](CCCCN)NC(=O)[C@H](N)CCCNC(=N)N)C(=O)N[C@H](CCCNC(=N)N)C(=O)N[C@H](CC(C)C)C(=O)N[C@@H](C(=O)N[C@H](Cc1ccc(O)cc1)C(=O)N[C@H](Cc1c[nH]cn1)C(=O)N[C@H](Cc1c[nH]c2ccccc12)C(=O)N[C@H](CC(N)=O)C(=O)N[C@H](CCCNC(=N)N)C(N)=O)c1ccccc1) [ANK3, D3 derivative; 06: Phenylglycine (D)] | 0.2 rfu | 3.6 rfu | 21.9 | 6.5 | 0.6 rfu | 62±10% | remains at the level of the first measured value
rkrirlvyhinr (H-[dR][dK][dR][dI][dR][dL][dV][dY][dH][dI][dN][dR]-NH2; SMILES CC[C@@H](C)[C@@H](NC(=O)[C@@H](Cc1c[nH]cn1)NC(=O)[C@@H](Cc1ccc(O)cc1)NC(=O)[C@H](NC(=O)[C@@H](CC(C)C)NC(=O)[C@@H](CCCNC(=N)N)NC(=O)[C@H](NC(=O)[C@@H](CCCNC(=N)N)NC(=O)[C@@H](CCCCN)NC(=O)[C@H](N)CCCNC(=N)N)[C@H](C)CC)C(C)C)C(=O)N[C@H](CC(N)=O)C(=O)N[C@H](CCCNC(=N)N)C(N)=O) [ANK1, D-enantiomeric 12-mer peptide derived from D3] | 1.3 rfu | 6.6 rfu | 5.1 | 3.5 | 1.9 rfu | 51±6% | remains at the level of the first measured value
rpr07rlhtkkkr (H-[dR][dP][dR][d(hArg)][dR][dL][dH][dT][dK][dK][dK][dR]-NH2; SMILES CC(C)C[C@@H](NC(=O)[C@@H](CCCNC(=N)N)NC(=O)[C@@H](CCCCNC(=N)N)NC(=O)[C@@H](CCCNC(=N)N)NC(=O)[C@H]1CCCN1C(=O)[C@H](N)CCCNC(=N)N)C(=O)N[C@H](Cc1c[nH]cn1)C(=O)N[C@@H](C(=O)N[C@H](CCCCN)C(=O)N[C@H](CCCCN)C(=O)N[C@H](CCCCN)C(=O)N[C@H](CCCNC(=N)N)C(N)=O)[C@H](C)O) [ANK18, D3 derivative; 07: D-Homoarginine] | 0.1 rfu | 1.2 rfu | 9.4 | 7.0 | 0.2 rfu | – | –
rprvrl06yhwnr (H-[dR][dP][dR][dV][dR][dL][dPhg][dY][dH][dW][dN][dR]-NH2; SMILES CC(C)C[C@@H](NC(=O)[C@@H](CCCNC(=N)N)NC(=O)[C@H](NC(=O)[C@@H](CCCNC(=N)N)NC(=O)[C@H]1CCCN1C(=O)[C@H](N)CCCNC(=N)N)C(C)C)C(=O)N[C@@H](C(=O)N[C@H](Cc1ccc(O)cc1)C(=O)N[C@H](Cc1c[nH]cn1)C(=O)N[C@H](Cc1c[nH]c2ccccc12)C(=O)N[C@H](CC(N)=O)C(=O)N[C@H](CCCNC(=N)N)C(N)=O)c1ccccc1) [ANK15, D3 derivative; 06: Phenylglycine (D)] | 0.1 rfu | 1.3 rfu | 12.2 | 2.2 | 0.6 rfu | – | –
